Patent publication US20170224816A1

Molecular target: CD81 (UniProt P60033)
Assay: cell-based or functional assay

Chain of UniProt P60033 (P60033 whole entry): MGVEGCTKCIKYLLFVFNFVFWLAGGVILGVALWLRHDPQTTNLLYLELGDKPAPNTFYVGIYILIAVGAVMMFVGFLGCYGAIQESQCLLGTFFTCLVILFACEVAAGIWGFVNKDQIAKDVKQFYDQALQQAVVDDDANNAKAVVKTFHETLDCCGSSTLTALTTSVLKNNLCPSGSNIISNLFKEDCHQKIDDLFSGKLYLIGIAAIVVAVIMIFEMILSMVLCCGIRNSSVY

“PCSK9 (proprotein convertase subtilisin/kexin type 9) (from UniProt Q8NBP7 31-692) (enzyme)” was tested, and the degradation of total CD81, Western blot of HepG2 cells was 25%.
